This assay addresses T1, CD123 Protein, His Tag, Acro Biosciences Cat. No. ILA-H52H6 (Homo sapiens (Human), UniProt P26951 19-305).
T1 construct: Bought protein; not shown: His tag
T1 sequence: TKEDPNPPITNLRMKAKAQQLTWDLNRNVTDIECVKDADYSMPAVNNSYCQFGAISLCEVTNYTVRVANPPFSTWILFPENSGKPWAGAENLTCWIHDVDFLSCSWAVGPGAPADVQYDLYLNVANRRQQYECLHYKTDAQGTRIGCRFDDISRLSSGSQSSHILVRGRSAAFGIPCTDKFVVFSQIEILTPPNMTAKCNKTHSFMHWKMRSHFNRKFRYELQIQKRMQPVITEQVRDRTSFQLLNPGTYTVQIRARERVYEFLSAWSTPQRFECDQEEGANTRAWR
In words: BLI, IgG on anti-human Fc sensor, 50 nM CD123, pH 7.4 and pH 5.4. A digest of the protocol:
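Single His/Ala heavy-chain CDR variants were expressed in Expi293 and captured from diluted supernatant on anti-human Fc sensors. By BLI, association with 50 nM His-tagged CD123 ran for 120 s and dissociation for 300–600 s, all in PBST pH 7.4. The full cycle was repeated separately in PBST pH 5.4.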
On the technique in general: BLI is a label-free optical method that tracks binding on a fibre tip over time.

B1: MYT1418 (antibody, V domains shown)
VH: QVQLVQSGAEVKKPGASVKMSCKASGYTFHDYYMKWVKQAPGQGLEWIGDIIPSNGATFYNQKFKGKATLTVDRSISTAYMHLNRLRSDDTAVYYCTRSHLLRASWFAYWGQGTLVTVSS
VL: DFVMTQSPDSLAVSLGERATINCKSSQSLLNSGNQKNYLTWYLQKPGQPPKLLIYWASTRESGVPDRFSGSGSGTDFTLTISSLQAEDVAVYYCQNDYSYPYTFGQGTKLEIK
notes: IgG
With B1, the binding result was “binds”.

B2: MYT1433 (antibody, V domains shown)
VH: QVQLVQSGAEVKKPGASVKMSCKASGYTFTDYYMKWVKQAPGQGLEWIGDIIPSNGATHYNQKFKGKATLTVDRSISTAYMHLNRLRSDDTAVYYCTRSHLLRASWFAYWGQGTLVTVSS
VL: DFVMTQSPDSLAVSLGERATINCKSSQSLLNSGNQKNYLTWYLQKPGQPPKLLIYWASTRESGVPDRFSGSGSGTDFTLTISSLQAEDVAVYYCQNDYSYPYTFGQGTKLEIK
notes: IgG
As for B2, the binding result is “binds”.

B3: MYT1429 (antibody, V domains shown)
VH: QVQLVQSGAEVKKPGASVKMSCKASGYTFTDYYMKWVKQAPGQGLEWIGDIIPSHGATFYNQKFKGKATLTVDRSISTAYMHLNRLRSDDTAVYYCTRSHLLRASWFAYWGQGTLVTVSS
VL: DFVMTQSPDSLAVSLGERATINCKSSQSLLNSGNQKNYLTWYLQKPGQPPKLLIYWASTRESGVPDRFSGSGSGTDFTLTISSLQAEDVAVYYCQNDYSYPYTFGQGTKLEIK
notes: IgG
With B3, the binding result is “binds”.

B4: MYT1428 (antibody, V domains shown)
VH: QVQLVQSGAEVKKPGASVKMSCKASGYTFTDYYMKWVKQAPGQGLEWIGDIIPHNGATFYNQKFKGKATLTVDRSISTAYMHLNRLRSDDTAVYYCTRSHLLRASWFAYWGQGTLVTVSS
VL: DFVMTQSPDSLAVSLGERATINCKSSQSLLNSGNQKNYLTWYLQKPGQPPKLLIYWASTRESGVPDRFSGSGSGTDFTLTISSLQAEDVAVYYCQNDYSYPYTFGQGTKLEIK
notes: IgG
In the case of B4, the binding result is reported as “binds”.

B5: MYT1422 (antibody, V domains shown)
VH: QVQLVQSGAEVKKPGASVKMSCKASGYTFTDYYHKWVKQAPGQGLEWIGDIIPSNGATFYNQKFKGKATLTVDRSISTAYMHLNRLRSDDTAVYYCTRSHLLRASWFAYWGQGTLVTVSS
VL: DFVMTQSPDSLAVSLGERATINCKSSQSLLNSGNQKNYLTWYLQKPGQPPKLLIYWASTRESGVPDRFSGSGSGTDFTLTISSLQAEDVAVYYCQNDYSYPYTFGQGTKLEIK
notes: IgG
As for B5, the binding result was “binds”.

B6: MYT1435 (antibody, V domains shown)
VH: QVQLVQSGAEVKKPGASVKMSCKASGYTFTDYYMKWVKQAPGQGLEWIGDIIPSNGATFYHQKFKGKATLTVDRSISTAYMHLNRLRSDDTAVYYCTRSHLLRASWFAYWGQGTLVTVSS
VL: DFVMTQSPDSLAVSLGERATINCKSSQSLLNSGNQKNYLTWYLQKPGQPPKLLIYWASTRESGVPDRFSGSGSGTDFTLTISSLQAEDVAVYYCQNDYSYPYTFGQGTKLEIK
notes: IgG
In the case of B6, the binding result is “binds”.

B7: MYT1431 (antibody, V domains shown)
VH: QVQLVQSGAEVKKPGASVKMSCKASGYTFTDYYMKWVKQAPGQGLEWIGDIIPSNGHTFYNQKFKGKATLTVDRSISTAYMHLNRLRSDDTAVYYCTRSHLLRASWFAYWGQGTLVTVSS
VL: DFVMTQSPDSLAVSLGERATINCKSSQSLLNSGNQKNYLTWYLQKPGQPPKLLIYWASTRESGVPDRFSGSGSGTDFTLTISSLQAEDVAVYYCQNDYSYPYTFGQGTKLEIK
notes: IgG
Consider B7, for which the binding result is recorded as “binds”.

B8: MYT1421 (antibody, V domains shown)
VH: QVQLVQSGAEVKKPGASVKMSCKASGYTFTDYHMKWVKQAPGQGLEWIGDIIPSNGATFYNQKFKGKATLTVDRSISTAYMHLNRLRSDDTAVYYCTRSHLLRASWFAYWGQGTLVTVSS
VL: DFVMTQSPDSLAVSLGERATINCKSSQSLLNSGNQKNYLTWYLQKPGQPPKLLIYWASTRESGVPDRFSGSGSGTDFTLTISSLQAEDVAVYYCQNDYSYPYTFGQGTKLEIK
notes: IgG
In the case of B8, the binding result is given as “binds”.

B9: MYT1420 (antibody, V domains shown)
VH: QVQLVQSGAEVKKPGASVKMSCKASGYTFTDHYMKWVKQAPGQGLEWIGDIIPSNGATFYNQKFKGKATLTVDRSISTAYMHLNRLRSDDTAVYYCTRSHLLRASWFAYWGQGTLVTVSS
VL: DFVMTQSPDSLAVSLGERATINCKSSQSLLNSGNQKNYLTWYLQKPGQPPKLLIYWASTRESGVPDRFSGSGSGTDFTLTISSLQAEDVAVYYCQNDYSYPYTFGQGTKLEIK
notes: IgG
As for B9, the binding result was “binds”.

B10: MYT1432 (antibody, V domains shown)
VH: QVQLVQSGAEVKKPGASVKMSCKASGYTFTDYYMKWVKQAPGQGLEWIGDIIPSNGAHFYNQKFKGKATLTVDRSISTAYMHLNRLRSDDTAVYYCTRSHLLRASWFAYWGQGTLVTVSS
VL: DFVMTQSPDSLAVSLGERATINCKSSQSLLNSGNQKNYLTWYLQKPGQPPKLLIYWASTRESGVPDRFSGSGSGTDFTLTISSLQAEDVAVYYCQNDYSYPYTFGQGTKLEIK
notes: IgG
Regarding B10, the binding result was “binds”.

B11: MYT1419 (antibody, V domains shown)
VH: QVQLVQSGAEVKKPGASVKMSCKASGYTFTHYYMKWVKQAPGQGLEWIGDIIPSNGATFYNQKFKGKATLTVDRSISTAYMHLNRLRSDDTAVYYCTRSHLLRASWFAYWGQGTLVTVSS
VL: DFVMTQSPDSLAVSLGERATINCKSSQSLLNSGNQKNYLTWYLQKPGQPPKLLIYWASTRESGVPDRFSGSGSGTDFTLTISSLQAEDVAVYYCQNDYSYPYTFGQGTKLEIK
notes: IgG
As to B11, the binding result is given as “binds”.

B12: MYT1434 (antibody, V domains shown)
VH: QVQLVQSGAEVKKPGASVKMSCKASGYTFTDYYMKWVKQAPGQGLEWIGDIIPSNGATFHNQKFKGKATLTVDRSISTAYMHLNRLRSDDTAVYYCTRSHLLRASWFAYWGQGTLVTVSS
VL: DFVMTQSPDSLAVSLGERATINCKSSQSLLNSGNQKNYLTWYLQKPGQPPKLLIYWASTRESGVPDRFSGSGSGTDFTLTISSLQAEDVAVYYCQNDYSYPYTFGQGTKLEIK
notes: IgG
With B12, the binding result is reported as “binds”.

B13: MYT1430 (antibody, V domains shown)
VH: QVQLVQSGAEVKKPGASVKMSCKASGYTFTDYYMKWVKQAPGQGLEWIGDIIPSNHATFYNQKFKGKATLTVDRSISTAYMHLNRLRSDDTAVYYCTRSHLLRASWFAYWGQGTLVTVSS
VL: DFVMTQSPDSLAVSLGERATINCKSSQSLLNSGNQKNYLTWYLQKPGQPPKLLIYWASTRESGVPDRFSGSGSGTDFTLTISSLQAEDVAVYYCQNDYSYPYTFGQGTKLEIK
notes: IgG
Take B13: the binding result is listed as “binds”.

B14: MYT1426 (antibody, V domains shown)
VH: QVQLVQSGAEVKKPGASVKMSCKASGYTFTDYYMKWVKQAPGQGLEWIGDIHPSNGATFYNQKFKGKATLTVDRSISTAYMHLNRLRSDDTAVYYCTRSHLLRASWFAYWGQGTLVTVSS
VL: DFVMTQSPDSLAVSLGERATINCKSSQSLLNSGNQKNYLTWYLQKPGQPPKLLIYWASTRESGVPDRFSGSGSGTDFTLTISSLQAEDVAVYYCQNDYSYPYTFGQGTKLEIK
notes: IgG
Regarding B14, the binding result is recorded as “binds”.

B15: MYT1423 (antibody, V domains shown)
VH: QVQLVQSGAEVKKPGASVKMSCKASGYTFTDYYMHWVKQAPGQGLEWIGDIIPSNGATFYNQKFKGKATLTVDRSISTAYMHLNRLRSDDTAVYYCTRSHLLRASWFAYWGQGTLVTVSS
VL: DFVMTQSPDSLAVSLGERATINCKSSQSLLNSGNQKNYLTWYLQKPGQPPKLLIYWASTRESGVPDRFSGSGSGTDFTLTISSLQAEDVAVYYCQNDYSYPYTFGQGTKLEIK
notes: IgG
As to B15, the binding result is “binds”.
